Test results: publication PMC8199477

Molecular target: urate oxidase from Deinococcus radiodurans (DrUox) (Deinococcus radiodurans R1)
Assay: SEC; Superdex 200 (10/300) GL, 20 mM Tris-HCl pH 8.0, 100 mM NaCl, 0.5 mL/min; size by interpolation against protein markers

urate oxidase from Deinococcus radiodurans (DrUox) (enzyme)
stoichiometry N: 4
